Results taken from patent US6740739B1, “Substitutional variants of APO-2 ligand” (Genentech, Inc., priority 1998, dated 2004).

Tests used:
[1] = Examination of infused animals for gross toxicity; type: in vivo, nude mice; conditions: E. coli-expressed Apo-2 ligand 10 mg/kg each day by mini-pump; Day 3
Protocol: In the experiment, the nude mice were injected subcutaneously with HCT116 human colon carcinoma cells (ATCC CCL 247) (1×10^6 cells) on each side of the animal. The tumors were then allowed to grow to reach approximately 1 cm diameter (approximately 10 days). On Day 0, the tumor volume was measured with calipers. Volume was calculated as π/6×ab^2, where a=length and b=width. Then osmotic mini-pumps (available from Alza Corp., Model 1003) were implanted intraperitoncally into each animal. The mini-pumps were loaded with either (1) control vehicle (20 mM Tris pH 7.5, 8% Trehalose. 0.01% Tween-20) or (2) Apo-2 ligand. Five animals in each group received either the control vehicle or Apo-2 ligand. The mini-pumps were calibrated to deliver each day 10 mg/kg Apo-2 ligand (10 mg/ml×2 μl/hour) or 2 μl/hour control vehicle.
On Day 3, the tumor volume was again measured, and the animals were sacrificed. […] There was no change in tumor volume in the vehicle group, but a marked reduction in tumor size occurred in mice infused with the Apo-2L. The treatment with the Apo-2L shrunk the tumors by about 50% over 3 days.

Jurkat cells = assay: Apoptosis by FACS (PI / FITC-annexin V); type: cell-based, human; conditions: Apo-2 ligand 3 μg/ml, 24 hours, control 5.9
Protocol: (§1) The effects of the Apo-2 ligand on the 9D cells, as well as on Raji cells (human Burkitt's lymphoma B cell line, ATCC CCL 86) and Jurkat cells (human acute T cell leukemia cell line, ATCC TIB 152) were further analyzed by FACS. The FACS analysis was conducted, using established criteria for apoptotic cell death, namely, the relation of fluorescence staining of the cells with two markers: (a) propidium iodide (“PI”) dye, which stains apoptotic but not live cells, and (b) a fluorescent derivative of the protein, annexin V, which binds to the exposed phosphatidylserine found on the surface of apoptotic cells, but not on live cells [Darzynkiewicz et al., Methods in Cell Biol., 41:15-38 (1994); Fadok et al., J. Immunol., 148:2207-2216 (1992); Koopman et al., Blood, 84:1415-1420 (1994)].
(§2) The 9D cells (FIG. 2B), Raji cells (FIG. 2C), and Jurkat cells (FIG. 2D) were incubated (1×10^6 cells/well) for 24 hours with a media control (left panels), Apo-2 ligand (3 μg/ml, prepared as described in Example 3) (center panels), or anti-Apo-1 ligand antibody, CH11 (1 μg/ml) (right panels). The cells were then washed, stained with PI and with fluorescein thiocyanate (FITC)-conjugatedannexin V (purchased from Brand Applications) and analyzed by flow cytometry. […]

Raji cells = assay: Apoptosis by FACS (PI / FITC-annexin V); type: cell-based, human; conditions: Apo-2 ligand 3 μg/ml, 24 hours, control 35.9
Protocol: as §1, §2

B lymphocytes = assay: Apoptosis by FACS in peripheral blood B cells; type: cell-based, human; conditions: Apo-2 ligand 3 μg/ml, 3 days, mean ±SE
Protocol: Peripheral blood mononuclear cells (“PBMC&”) were isolated from the blood of human donors by Ficoll density gradient centrifugation using Lymphocyte Separation Medium (LSM®, Organon Teknika). An isolated population of T cells was prepared from the PBMC by removal of B cells through surface Ig binding to an anti-Ig column and removal of monocytes through Fc receptor binding to an Ig column (R & D Systems). An isolated population of B cells was prepared from the PBMC by complement-mediatedelimination of T cells reacted with the anti-CD3 antibody produced by the OKT3 myeloma (ATCC, CRL 8001) and of monocytes reacted with a monocyte-specific antibody produced by the 4F2C13 hybridoma (ATCC, HB 22). Additional monocyte removal was accomplished by adherence to plastic.
The freshly isolated peripheral blood B or T cells (1×10^6 cells/well) were cultured for 3 days in the presence of a media control or Apo-2 ligand (3 μg/ml, prepared as described in Example 3). […] Apoptosis was determined using FACS analysis essentially as described above in Example 4. […] The results are shown in Table 2 below, representing means ±SE of independent experiments [B lymphocytes—9 experiments; T lymphocytes—8 experiments; T lymphocytes plus IL-2-5 experiments], in which 50,000 cells were analyzed per data point. […]

A549 = type: cell-based, human
Protocol: (§3) The following human tumor cell lines were assayed: A549 (lung carcinoma, ATCC CCL 185); HCT116 (colon carcinoma, ATCC CCL 247); SW480 (colon adenocarcinoma, ATCC CCL 228); MDA231 (breast adenocarcinoma, ATCC HTB 26); HeLa (cervical carcinoma, ATCC CCL 22); ME-180 (cervical carcinoma, ATCC HTB 33); T24 (bladder carcinoma. ATCC HTB 4); SK-N-AS (neuroblastoma, White et al., Proc. Natl. Acad. Sci., 92:5520-5524 (1995)). The cells were plated at 2.5×10^5 cells/ml in 96 well plates and incubated overnight. The cells were cultured in the presence of 2-fold dilutions of Apo-2 ligand (ranging from 100 ng/ml to 0.01 ng/ml). In some of the cultures, a chemotherapeuticagent was also added for 24 hours-cyclohexamide (“CHX”) (50 μg/ml; Sigma Chemicals), Doxorubicin (10-100 μg/ml; Pharmacia), or 5-FU (6 mg/ml; Roche). After 24 hours of incubation, the cells were stained with 0.5% crystal-violetin 20% methanol. Cell viability was determined by eluting the dye from the stained cells with 0.1M sodium citrate (0.1M citric acid in 50% methanol), and measuring absorbance at 540 nm.

SW480 = type: cell-based, human
Protocol: as §3

B1: Apo-2L: purified soluble His10-tagged human Apo-2 ligand, residues 114-281, from baculovirus-infected Sf9 cells (Example 3); used in Examples 4-14 (protein)
chain: MGHHHHHHHHHHSSGHIDDDDKHMVRERGPQRVAAHITGTRGRSNTLSSPNSKNEKALGRKINSWESSRSGHSFLSNLHLRNGELVIHEKGFYYIYSQTYFRFQEEIKENTKNDKQMVQYIYKYTSYPDPILLMKSARNSCWSKDAEYGLYSIYQGGIFELKENDRIFVSVTNEHLIDMDHEASFFGAFLVG
With B1 the “gross evidence of toxicity” value [1] was “did not reveal any gross evidence of toxicity”, the “% apoptotic cells” value (Jurkat cells) was 77.0% and the “% apoptotic cells” value (Raji cells) was 73.4%. For the same molecule, the “% apoptolic cells” value (B lymphocytes; LPS 1 μg/ml, control 44.8 ± 2.8, a=p<0.05) was 55.9 ± 3.2^a %, the “% apoptolic cells” value (B lymphocytes; treatment none, control 40.1 ± 4.1, a=p<0.05) was 53.2 ± 3.3^a % and the “Apo-2L sensitivity ENHANCED BY 5-FU” value (A549) was “yes”. For the same molecule, the “Apo-2L sensitivity ENHANCED BY Dox” value (A549; A549, Doxorubicin 10-100 μg/ml, 24 hours) was “yes”, the “Apo-2L sensitivity ENHANCED BY CHX” value (A549; A549, cyclohexamide 50 μg/ml, 24 hours) was “yes” and the “Apo-2L SENSITIVITY” value (A549; A549 lung carcinoma, p53 WT, 24 h) was “++ (>70% death after 24 h with 100 ng/ml Apo-2L)”. The “Apo-2L sensitivity ENHANCED BY 5-FU” value (SW480) was “yes”, the “Apo-2L sensitivity ENHANCED BY Dox” value (SW480; SW480, Doxorubicin 10-100 μg/ml, 24 hours) was “yes” and the “Apo-2L sensitivity ENHANCED BY CHX” value (SW480; SW480, cyclohexamide 50 μg/ml, 24 hours) was “yes”. The “Apo-2L SENSITIVITY” value (SW480; SW480 colon carcinoma, p53 mut, 24 h) was “++ (>70% death after 24 h with 100 ng/ml Apo-2L)”.
